Measured values reported in patent US20240270828A1 (UAB RESEARCH FOUNDATION, published 2024).
Read-outs that look alike come from different tables or passages of the source.

Key:
[1] = biological target: T1, SARS-CoV-2 Spike protein (SARS-CoV-2, UniProt P0DTC2 16-1211)
[2] = biological target: T2, SARS-CoV-2 Omicron Spike protein (SARS-CoV-2 Omicron, UniProt P0DTC2 16-1213)
[3] = biological target: T1, SARS-CoV-2 Spike protein; experiment: SPR/BLI, method not told apart
[4] = biological target: T2, SARS-CoV-2 Omicron Spike protein; experiment: BLI, mAb on anti-human Fc biosensors
[5] = biological target: T1, SARS-CoV-2 Spike protein; experiment: BLI, mAb on anti-human Fc biosensor, SARS-CoV-2 Spike in solution
[6] = biological target: T3, 229E Spike protein (HCoV-229E, UniProt P15423 16-1115); experiment: ELISA titration of 1249A8 on coated Spike proteins, mean Abs at 450 nm
T3 sequence: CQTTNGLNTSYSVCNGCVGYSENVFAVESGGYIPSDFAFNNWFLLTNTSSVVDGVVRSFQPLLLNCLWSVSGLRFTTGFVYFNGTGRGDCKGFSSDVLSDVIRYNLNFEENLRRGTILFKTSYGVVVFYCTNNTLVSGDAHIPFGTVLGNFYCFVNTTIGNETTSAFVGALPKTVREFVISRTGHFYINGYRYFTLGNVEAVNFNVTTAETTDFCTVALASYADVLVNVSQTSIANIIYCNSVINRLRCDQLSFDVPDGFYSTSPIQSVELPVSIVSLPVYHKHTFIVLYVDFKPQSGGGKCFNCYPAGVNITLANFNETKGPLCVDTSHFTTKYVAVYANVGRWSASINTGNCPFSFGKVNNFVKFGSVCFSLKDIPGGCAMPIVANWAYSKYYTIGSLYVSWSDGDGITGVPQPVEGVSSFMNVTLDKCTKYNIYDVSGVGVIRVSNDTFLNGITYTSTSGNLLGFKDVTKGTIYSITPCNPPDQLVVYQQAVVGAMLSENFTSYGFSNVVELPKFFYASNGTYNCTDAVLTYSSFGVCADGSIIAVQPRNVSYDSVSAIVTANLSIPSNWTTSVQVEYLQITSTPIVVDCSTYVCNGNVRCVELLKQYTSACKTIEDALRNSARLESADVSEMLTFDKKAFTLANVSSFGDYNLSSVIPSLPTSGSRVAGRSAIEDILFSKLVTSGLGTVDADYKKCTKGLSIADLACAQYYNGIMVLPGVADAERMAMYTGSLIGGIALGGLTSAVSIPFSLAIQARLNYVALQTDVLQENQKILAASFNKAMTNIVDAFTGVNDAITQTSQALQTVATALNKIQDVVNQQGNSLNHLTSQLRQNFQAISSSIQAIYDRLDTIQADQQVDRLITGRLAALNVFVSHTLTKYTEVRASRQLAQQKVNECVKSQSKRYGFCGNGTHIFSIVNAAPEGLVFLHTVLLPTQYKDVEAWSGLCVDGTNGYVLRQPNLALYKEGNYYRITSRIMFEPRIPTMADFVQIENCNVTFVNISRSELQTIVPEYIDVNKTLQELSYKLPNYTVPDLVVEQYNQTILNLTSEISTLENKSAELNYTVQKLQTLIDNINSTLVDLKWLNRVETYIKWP

[7] = biological target: T4, NL63 Spike protein (HCoV-NL63, UniProt Q6Q1S2 19-1296); experiment: as above
T4 sequence: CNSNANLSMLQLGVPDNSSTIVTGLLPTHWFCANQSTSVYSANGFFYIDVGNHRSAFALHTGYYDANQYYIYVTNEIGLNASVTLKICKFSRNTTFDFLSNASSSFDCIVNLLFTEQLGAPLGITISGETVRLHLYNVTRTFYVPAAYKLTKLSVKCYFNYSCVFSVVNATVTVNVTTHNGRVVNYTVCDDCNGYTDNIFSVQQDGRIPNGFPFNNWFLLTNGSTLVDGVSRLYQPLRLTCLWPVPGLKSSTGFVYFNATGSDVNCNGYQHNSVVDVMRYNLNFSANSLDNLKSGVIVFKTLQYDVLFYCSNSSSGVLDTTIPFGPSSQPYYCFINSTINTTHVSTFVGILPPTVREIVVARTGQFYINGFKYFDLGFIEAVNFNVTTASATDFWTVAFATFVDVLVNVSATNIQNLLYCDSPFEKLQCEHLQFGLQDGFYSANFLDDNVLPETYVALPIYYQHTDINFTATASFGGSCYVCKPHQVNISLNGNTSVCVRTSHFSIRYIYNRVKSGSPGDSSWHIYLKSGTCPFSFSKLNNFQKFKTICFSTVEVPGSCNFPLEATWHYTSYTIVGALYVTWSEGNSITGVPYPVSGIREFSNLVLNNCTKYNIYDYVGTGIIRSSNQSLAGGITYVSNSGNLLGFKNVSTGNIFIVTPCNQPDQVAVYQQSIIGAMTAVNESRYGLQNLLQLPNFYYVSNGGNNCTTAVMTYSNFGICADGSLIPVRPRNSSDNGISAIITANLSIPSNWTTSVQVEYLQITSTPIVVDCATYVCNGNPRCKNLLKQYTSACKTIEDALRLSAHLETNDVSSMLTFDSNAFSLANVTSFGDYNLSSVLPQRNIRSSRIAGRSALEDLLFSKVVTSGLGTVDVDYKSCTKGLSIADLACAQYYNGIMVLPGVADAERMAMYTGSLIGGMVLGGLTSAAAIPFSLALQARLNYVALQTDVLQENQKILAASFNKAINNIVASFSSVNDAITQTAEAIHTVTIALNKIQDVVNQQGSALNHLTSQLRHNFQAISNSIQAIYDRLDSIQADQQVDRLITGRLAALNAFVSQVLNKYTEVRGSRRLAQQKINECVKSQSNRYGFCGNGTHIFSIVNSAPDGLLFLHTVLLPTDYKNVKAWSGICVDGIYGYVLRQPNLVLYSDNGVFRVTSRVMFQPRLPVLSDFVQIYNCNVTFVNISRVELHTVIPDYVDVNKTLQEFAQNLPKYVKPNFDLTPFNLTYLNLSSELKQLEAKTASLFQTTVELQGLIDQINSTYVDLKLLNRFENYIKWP

[8] = biological target: SARS-CoV-2 Spike protein (SARS-CoV-2, UniProt P0DTC2 16-1211); experiment: SPR, hmAb captured, SARS-CoV-2 Spike injected, 1:1 fit

B1: 1249A8 (antibody, V domains shown)
VH: QVQLVQSGAEVKKPGASMKVSCKASGFTFTDYYMHWVRQAPRQGLEWMGLINPSGSGTAYAQNFQGRVTLARDTSTSTLYMEMGSLTSDDTAVYYCARMDSSGSYDHWGQGTLVTVSS
VL: ETTLTQSPGTLSLSPGDRATLSCRASQTIRISYLAWYQQKPGQAPRLLVYGPSIRATGIPDRFSARGSGTDFTLTISRLEPEDFAVYYCQHYGSSPPRYTFGQGTKLEIK
Work on B1 yielded a Kd [1] of 1.22 nM, a Kd [2] of 0.517 nM and a Kd [3] of 1.8 nM. The Kd [4] was 0.52 nM, the Kd [5] was 2.85 nM and the binding result [6] was “no binding (tested: about 1000 ng/ml)”. B1: no binding (tested: about 1000 ng/ml) [7].

B2: S2P6 (antibody, V domains shown)
VH: EVQLVQSGAEVKKPGASVKVSCKASGYTFTSQYMHWVRQAPGQGLEWIGIINPSGVHTSYAQKFQGRVTLTRDTSTSTLYMELSSLRSEDTAVYYCARGSPKGAFDYWGQGTLVTVSS
VL: not shown
Work on B2 yielded a Kd [8] of 9.7 nM.

B3: CC40.8 (antibody, V domains shown)
VH: EVQLLESGGGLVQPGGSLRLSCAASGFTFSSYVMTWARQAPGKGLEWVSAISGTGYTYYADSVKGRFTVSRDNSKNTLFLQMSSLRAEDTAVYYCAITMAPVVWGQGTTVTVSS
VL: SYELTQPPSVSVSPGQTARITCSGDALPKRYAYWYQQKSGQAPILVIYEDKKRPSGIPERLSGSKSGTVATLTISGAQVEDEADYYCYSTDSSGNHAVFGGGTQLTVL
Binder B3 has a Kd [8] of 1.6 nM.

B4: CV3-25 (antibody, V domains shown)
VH: QVQLVESGAEVKKPGESLKISCKGSGYTFTRYWIGWVRQMPGKGLEWMGIIYPGDSDTRYSPSFQGHVTISADKSISTAYLQWNSLKASDTAMYYCARLPQYCSNGVCQRWFDPWGQGTLVTVSS
VL: EIVLTQSPSSVSASVGDRVTITCRASQGISSWLAWYQQKPGKAPKLLIYAASSLQSGVPSRFSGSGSGTDFTLTISSLQPEDFATYYCQQGNSFPYTFGQGTNLEIK
B4 gave a Kd [8] of 2.5 nM.
